Where “and” joins values, the source holds several entries; their conditions need not be identical. Equal values may be shown once.

For assay [1], the target named is biotinylated 9C5 antibody (anti-human CD34 monoclonal antibody, biotinylated with Biotin Hydrazide). Description: cell-based or functional assay.
Assay [2] has as its target CD34 antibody 9069 (9C5) coated on M-450 Dynabeads. Briefly: cell-based or functional assay.

B1: free PR34+ peptide Ac-QQGWFPKD (peptide)
peptide: QQGWFPKD
modifications: N-terminal acetyl (printed Ac-QQGWFPKD)
Turning to B1, in assay [1], the % SUP-T1 Yield (tube 2, cells released with free PR34+ peptide) is 43%; the % SUP-T1 Yield (tube 3, cells released with free PR34+ peptide) amounted to 31%; the % T-cells released with 9069N 2.5 mg (CD2-9069N 1 µg, b-9069 1 µg) is 71%; the % T-cells released with 9069N 2.5 mg (CD2-9069N 1 µg, b-9069 10 µg) is 87% and 65%. In assay [1], the % T-cells released with 9069N 2.5 mg (CD2-9069N 5 µg, b-9069 1 µg) is 61% and 56%; the % T-cells released with 9069N 2.5 mg (CD2-9069N 5 µg, b-9069 10 µg) is 50%; the % Yield of CD8+ cells (condition 3, released with free PR34+ peptide) stood at 16%; the % Yield, released with PR34+ 2.5 mg (streptavidin coated Dynabead control) is 81.5%. Moreover, in assay [2], the % Yield, released with PR34+ 2.5 mg (beads with 1 µg antibody per 10^8 beads) is 55.9%; the % Yield, released with PR34+ 2.5 mg (beads with 5 µg antibody per 10^8 beads) came to 68.9%; the % Yield, released with PR34+ 2.5 mg (beads with 20 µg antibody per 10^8 beads) came out at 47.4%; the % Yield, released with PR34+ 2.5 mg (beads with 50 µg antibody per 10^8 beads) is 57.5%. Also, in assay [2], the release of Camma cells from anti-CD34-coated Dynabeads is above 75% and the yield of Camma cells after release with PR34 peptide is above 70%.

(Values after US20030219445A1.)
